Test results as given in patent publication US20210198647.

What was measured:
[1] = tested on: NlnA#1, NSC 374121, L-histidyl-L-tyrosine
[2] = tested on: NlnA#2, NSC 523374, D,L-histidyl-D,L-histidine

mouse brain-purified neurolysin
Emax, QFS (25 µM) hydrolysis [1]: 190% (95% confidence intervals 169.2 to 210.7%)
Emax, QFS (25 µM) hydrolysis [2]: 258% (95% confidence intervals 232.7 to 283.8%)

recombinant human neurolysin (R & D systems, product number 3814-ZN)
Emax, QFS (25 µM) hydrolysis [1]: 203.5% (95% confidence intervals 193.7 to 213.4%)
Emax, QFS (25 µM) hydrolysis [2]: 214.3% (95% confidence intervals 205.7 to 222.9%)
